Measurements: IntAct's records for PubMed 18320024

B1: Tetratricopeptide repeat protein 4 (Homo sapiens), O95801 (parent)
chain: MEQPGQDPTSDDVMDSFLEKFQSQPYRGGFHEDQWEKEFEKVPLFMSRAPSEIDPRENPDLACLQSIIFDEERSPEEQAKTYKDEGNDYFKEKDYKKAVISYTEGLKKKCADPDLNAVLYTNRAAAQYYLGNFRSALNDVTAARKLKPCHLKAIIRGALCHLELKHFAEAVNWCDEGLQIDAKEKKLLEMRAKADKLKRIEQRDVRKANLKEKKERNQNEALLQAIKARNIRLSEAACEDEDSASEGLGELFLDGLSTENPHGARLSLDGQGRLSWPVLFLYPEYAQSDFISAFHEDSRFIDHLMVMFGETPSWDLEQKYCPDNLEVYFEDEDRAELYRVPAKSTLLQVLQHQRYFVKALTPAFLVCVGSSPFCKNFLRGRKVYQIR

Variants of: B1
Conditions: with hs90b_human HSP90AB1, P08238
Chain of hs90b_human HSP90AB1, P08238 (P08238 whole entry): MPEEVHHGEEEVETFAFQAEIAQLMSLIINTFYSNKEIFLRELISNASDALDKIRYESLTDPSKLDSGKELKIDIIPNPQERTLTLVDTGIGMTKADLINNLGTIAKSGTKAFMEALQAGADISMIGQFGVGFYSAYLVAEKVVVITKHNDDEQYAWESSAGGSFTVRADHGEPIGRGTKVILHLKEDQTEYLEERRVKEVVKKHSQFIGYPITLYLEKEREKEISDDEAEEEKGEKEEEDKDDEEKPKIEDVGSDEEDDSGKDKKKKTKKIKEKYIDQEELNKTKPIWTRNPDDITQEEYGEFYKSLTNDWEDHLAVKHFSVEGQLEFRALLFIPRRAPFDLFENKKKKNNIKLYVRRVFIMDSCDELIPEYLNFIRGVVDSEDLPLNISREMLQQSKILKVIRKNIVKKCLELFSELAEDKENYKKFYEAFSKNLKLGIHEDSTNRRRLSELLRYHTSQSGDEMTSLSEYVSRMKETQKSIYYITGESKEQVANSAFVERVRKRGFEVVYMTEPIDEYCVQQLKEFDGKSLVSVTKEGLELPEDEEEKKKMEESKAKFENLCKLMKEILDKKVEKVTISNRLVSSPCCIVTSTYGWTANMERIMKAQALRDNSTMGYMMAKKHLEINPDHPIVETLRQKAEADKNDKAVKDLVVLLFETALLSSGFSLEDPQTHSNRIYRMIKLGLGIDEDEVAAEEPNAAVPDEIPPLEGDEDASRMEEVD

Row | Variant | effect of a mutation on the interaction
1 | MEQPGQDPTSDDVMDSFLEKFQSQPYRGGFHEDQWEKEFEKVPLFMSRAPSEIDPRENPDLACLQSMIFDEERSPEEQAKTYKDEGNDYFKEKDYKKAVISYTEGLKKKCADPDLNAVLYTNRAAAQYYLGNFRSALNDVTAARKLKPCHLKAIIRGALCHLELKHFAEAVNWCDEGLQIDAKEKKLLEMRAKADKLKRIEQRDVRKANLKEKKERNQNEALLQAIKARNIRLSEAACEDEDSASEGLGELFLDGLSTENPHGARLSLDGQGRLSWPVLFLYPEYAQSDFISAFHEDSRFIDHLMVMFGETPSWDLEQKYCPDNLEVYFEDEDRAELYRVPAKSTLLQVLQHQRYFVKALTPAFLVCVGSSPFCKNFLRGRKVYQIR [I67M] | with no effect
2 | MEQPGQDPTSDDVMDSFLEKFQSQPYRGGFHEDQWEKEFEKVPLFMSRAPSEIDPRENPDLACLQSIIFDEERSPEEQAKTYKDEGNDYFKEKDYKKAVISYTEGLKKKCADPDLNAVLYTNRAAAQYYLGNFRSALNDVTAARKLKPCHLKAIIRGALCHLELKHFAEAVNWCDEGLQIDAKEKKLLEMRAKADKLKRIEQRDVRKANLKEKKERKQNEALLQAIKARNIRLSEAACEDEDSASEGLGELFLDGLSTENPHGARLSLDGQGRLSWPVLFLYPEYAQSDFISAFHEDSRFIDHLMVMFGETPSWDLEQKYCPDNLEVYFEDEDRAELYRVPAKSTLLQVLQHQRYFVKALTPAFLVCVGSSPFCKNFLRGRKVYQIR [N217K] | decreasing interaction strength

Variants of: B1
Conditions: with hsp7c_human HSPA8, P11142
Chain of hsp7c_human HSPA8, P11142 (P11142 whole entry, looked up): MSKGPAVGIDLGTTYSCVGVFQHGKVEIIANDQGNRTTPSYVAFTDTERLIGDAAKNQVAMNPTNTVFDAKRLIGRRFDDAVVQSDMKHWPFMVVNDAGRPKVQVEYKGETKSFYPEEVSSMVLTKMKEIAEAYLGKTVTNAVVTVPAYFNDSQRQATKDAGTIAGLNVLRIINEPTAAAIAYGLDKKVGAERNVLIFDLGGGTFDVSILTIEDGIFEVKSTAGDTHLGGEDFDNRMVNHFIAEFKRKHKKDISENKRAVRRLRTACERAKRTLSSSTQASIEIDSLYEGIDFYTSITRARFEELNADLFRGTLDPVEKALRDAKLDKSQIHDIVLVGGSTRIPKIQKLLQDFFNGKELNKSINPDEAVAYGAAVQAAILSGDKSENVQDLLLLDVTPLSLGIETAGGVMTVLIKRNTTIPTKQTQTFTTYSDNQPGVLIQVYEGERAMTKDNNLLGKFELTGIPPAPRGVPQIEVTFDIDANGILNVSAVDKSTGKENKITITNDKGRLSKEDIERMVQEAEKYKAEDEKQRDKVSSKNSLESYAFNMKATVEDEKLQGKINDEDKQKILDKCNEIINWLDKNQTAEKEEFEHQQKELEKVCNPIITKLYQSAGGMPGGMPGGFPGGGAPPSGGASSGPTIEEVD

Row | Variant | effect of a mutation on the interaction
3 | MEQPGQDPTSDDVMDSFLEKFQSQPYRGGFHEDQWEKEFEKVPLFMSRAPSEIDPRENPDLACLQSMIFDEERSPEEQAKTYKDEGNDYFKEKDYKKAVISYTEGLKKKCADPDLNAVLYTNRAAAQYYLGNFRSALNDVTAARKLKPCHLKAIIRGALCHLELKHFAEAVNWCDEGLQIDAKEKKLLEMRAKADKLKRIEQRDVRKANLKEKKERNQNEALLQAIKARNIRLSEAACEDEDSASEGLGELFLDGLSTENPHGARLSLDGQGRLSWPVLFLYPEYAQSDFISAFHEDSRFIDHLMVMFGETPSWDLEQKYCPDNLEVYFEDEDRAELYRVPAKSTLLQVLQHQRYFVKALTPAFLVCVGSSPFCKNFLRGRKVYQIR [I67M] | decreasing interaction strength
4 | MEQPGQDPTSDDVMDSFLEKFQSQPYRGGFHEDQWEKEFEKVPLFMSRAPSEIDPRENPDLACLQSIIFDEERSPEEQAKTYKDEGNDYFKEKDYKKAVISYTEGLKKKCADPDLNAVLYTNRAAAQYYLGNFRSALNDVTAARKLKPCHLKAIIRGALCHLELKHFAEAVNWCDEGLQIDAKEKKLLEMRAKADKLKRIEQRDVRKANLKEKKERKQNEALLQAIKARNIRLSEAACEDEDSASEGLGELFLDGLSTENPHGARLSLDGQGRLSWPVLFLYPEYAQSDFISAFHEDSRFIDHLMVMFGETPSWDLEQKYCPDNLEVYFEDEDRAELYRVPAKSTLLQVLQHQRYFVKALTPAFLVCVGSSPFCKNFLRGRKVYQIR [N217K] | with no effect

Variants of: B1
Conditions: with hs90b_human HSP90AB1, P08238
Remark: another data set of the same source

Row | Variant | effect of a mutation on the interaction
5 | MEQPGQDPTSDDVMDSFLEKFQSQPYRGGFHEDQWEKEFEKVPLFMSRAPSEIDPRENPDLACLQSIIFDEERSPEEQAKTYKDEGNDYFKEKDYKKAVISYTEGLKKKCADPDLNAVLYTNRAAAQYYLGNFRSALNDVTAARKLKPCHLEAIIEGALCHLELKHFAEAVNWCDEGLQIDAKEKKLLEMRAKADKLKRIEQRDVRKANLKEKKERNQNEALLQAIKARNIRLSEAACEDEDSASEGLGELFLDGLSTENPHGARLSLDGQGRLSWPVLFLYPEYAQSDFISAFHEDSRFIDHLMVMFGETPSWDLEQKYCPDNLEVYFEDEDRAELYRVPAKSTLLQVLQHQRYFVKALTPAFLVCVGSSPFCKNFLRGRKVYQIR [K152E;R156E] | disrupting interaction strength
6 | MEQPGQDPTSDDVMDSFLEKFQSQPYRGGFHEDQWEKEFEKVPLFMSRAPSEIDPRENPDLACLQSIIFDEERSPEEQAKTYKDEGNDYFKEKDYKKAVISYTEGLKKKCADPDLNAVLYTNRAAAQYYLGNFRSALNDVTAARKLKPCHLEAIIRGALCHLELKHFAEAVNWCDEGLQIDAKEKKLLEMRAKADKLKRIEQRDVRKANLKEKKERNQNEALLQAIKARNIRLSEAACEDEDSASEGLGELFLDGLSTENPHGARLSLDGQGRLSWPVLFLYPEYAQSDFISAFHEDSRFIDHLMVMFGETPSWDLEQKYCPDNLEVYFEDEDRAELYRVPAKSTLLQVLQHQRYFVKALTPAFLVCVGSSPFCKNFLRGRKVYQIR [K152E] | disrupting interaction strength
7 | MEQPGQDPTSDDVMDSFLEKFQSQPYRGGFHEDQWEKEFEKVPLFMSRAPSEIDPRENPDLACLQSIIFDEERSPEEQAKTYKDEGNDYFKEKDYKKAVISYTEGLKKKCADPDLNAVLYTNRAAAQYYLGNFRSALNDVTAARKLKPCHLKAIIEGALCHLELKHFAEAVNWCDEGLQIDAKEKKLLEMRAKADKLKRIEQRDVRKANLKEKKERNQNEALLQAIKARNIRLSEAACEDEDSASEGLGELFLDGLSTENPHGARLSLDGQGRLSWPVLFLYPEYAQSDFISAFHEDSRFIDHLMVMFGETPSWDLEQKYCPDNLEVYFEDEDRAELYRVPAKSTLLQVLQHQRYFVKALTPAFLVCVGSSPFCKNFLRGRKVYQIR [R156E] | disrupting interaction strength
